Patent US20250064909A1 (MEDIMABBIO, published 2025)
Substitutions are numbered along the chain they refer to. Blank lines part the entries; values can stand above or below the binder they belong to.

Tests used:
[1] = target: T1, recombinant human TIGIT (Sino Biological) (human, UniProt Q495A1 22-138); test: SPR single cycle kinetics; KD divided by KD of the VH0/Vκ0 chimeric antibody;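 further: biacore T200 SPR at 25 °C, IgG captured on anti-human chip, TIGIT analyte in four rising concentrations, 210 s association each, 900 s dissociation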
T1 construct: Bought protein; NP_776160.2; also called human TIGIT antigen; hTIGIT
T1 sequence: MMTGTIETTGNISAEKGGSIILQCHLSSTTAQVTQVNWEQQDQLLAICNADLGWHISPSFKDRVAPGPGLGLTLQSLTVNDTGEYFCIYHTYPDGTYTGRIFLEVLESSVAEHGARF

[2] = target: T1, recombinant human TIGIT (Sino …); test: SPR (Biacore T200), single cycle kinetics, IgG from supernatant captured on anti-human chip, TIGIT as analyte, 1:1 fit;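 further: measured at 25 °C in HBS-P+ with 1% BSA, four ascending TIGIT concentrations, 210 s association per step, one final 900 s dissociation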

B1: 7A6 VH3/Vκ3 humanized antibody (human IgG1, kappa) (antibody, V domains shown)
VH: QVQLQESGPGLVKPSQTLSLTCTVTGYSITSDYAWNWIRQPPGKGLEWMGYISYSGSARYNPSLKSRVTISRDTSKNQFSLKLSSVTAEDTATYYCARKGYPAYFAYWGQGTLVTVSS
VL: DIQMTQSPSSLSASVGDRVSITCKASQDVSTAVAWYQQKPGQAPRLLIYSASYRYTGVPDRFSGSGSGTDFTLTISSLQAEDVAVYYCQHHYSTPYTFGQGTKLEIKR
notes: Tested as IgG in supernatant of transiently transfected HEK293 EBNA cells
Relative KD [1]: 1.38 | Kd [2]: 903 pM | koff [2]: 0.0015 s⁻¹ | kon [2]: 1.66e+06 M⁻¹ s⁻¹

B8: 7A6 VH1/Vκ5 humanized antibody (human IgG1, kappa) (antibody, V domains shown)
VH: B1 VH with Q1D, V68I, K76M, S84N
VL: B1 VL with A80P, V83F, V85T
notes: as for B1
Relative KD [1]: 1.1 | Kd [2]: 717 pM | koff [2]: 0.00129 s⁻¹ | kon [2]: 1.8e+06 M⁻¹ s⁻¹

B10: 7A6 VH1/Vκ1 humanized antibody (human IgG1, kappa) (antibody, V domains shown)
VH: B1 VH with Q1D, V68I, K76M, S84N
VL: B1 VL with Q3V, P8H, S10F, R45E, S63T, I106M
notes: as for B1
Relative KD [1]: 0.85 | Kd [2]: 554 pM | koff [2]: 0.00129 s⁻¹ | kon [2]: 2.33e+06 M⁻¹ s⁻¹

B11: 7A6 VH3/Vκ2 humanized antibody (human IgG1, kappa) (antibody, V domains shown)
VH: B1 VH
VL: B1 VL with Q3V, S63T
notes: as for B1
Relative KD [1]: 1.48 | Kd [2]: 963 pM | koff [2]: 0.00173 s⁻¹ | kon [2]: 1.8e+06 M⁻¹ s⁻¹

B12: 7A6 VH1/Vκ2 humanized antibody (human IgG1, kappa) (antibody, V domains shown)
VH: B1 VH with Q1D, V68I, K76M, S84N
VL: B1 VL with Q3V, S63T
notes: as for B1
Relative KD [1]: 1.24 | Kd [2]: 811 pM | koff [2]: 0.00146 s⁻¹ | kon [2]: 1.8e+06 M⁻¹ s⁻¹

B13: 7A6 VH3/Vκ1 humanized antibody (human IgG1, kappa) (antibody, V domains shown)
VH: B1 VH
VL: B1 VL with Q3V, P8H, S10F, R45E, S63T, I106M
notes: as for B1
Relative KD [1]: 1.1 | Kd [2]: 715 pM | koff [2]: 0.00155 s⁻¹ | kon [2]: 2.17e+06 M⁻¹ s⁻¹

More lines, in order of falling Kd [2], values ahead:

Relative KD [1]: 1.58 | Kd [2]: 1030 pM | koff [2]: 0.00181 s⁻¹ | kon [2]: 1.75e+06 M⁻¹ s⁻¹
B9: 7A6 VH2/Vκ4 humanized antibody (human IgG1, kappa) (antibody, V domains shown)
VH: B1 VH with Q1D, V68I
VL: B1 VL with S20T, K24R
notes: as for B1

Relative KD [1]: 1.48 | Kd [2]: 963 pM | koff [2]: 0.00182 s⁻¹ | kon [2]: 1.89e+06 M⁻¹ s⁻¹
B6: 7A6 VH1/Vκ3 humanized antibody (human IgG1, kappa) (antibody, V domains shown)
VH: B1 VH with Q1D, V68I, K76M, S84N
VL: B1 VL
notes: as for B1

Relative KD [1]: 1.47 | Kd [2]: 961 pM | koff [2]: 0.00158 s⁻¹ | kon [2]: 1.65e+06 M⁻¹ s⁻¹
B5: 7A6 VH2/Vκ2 humanized antibody (human IgG1, kappa) (antibody, V domains shown)
VH: B1 VH with Q1D, V68I
VL: B1 VL with Q3V, S63T
notes: as for B1

Relative KD [1]: 1.38 | Kd [2]: 897 pM | koff [2]: 0.00134 s⁻¹ | kon [2]: 1.49e+06 M⁻¹ s⁻¹
B7: 7A6 VH2/Vκ3 humanized antibody (human IgG1, kappa) (antibody, V domains shown)
VH: B1 VH with Q1D, V68I
VL: B1 VL
notes: as for B1

Relative KD [1]: 1.34 | Kd [2]: 876 pM | koff [2]: 0.00167 s⁻¹ | kon [2]: 1.91e+06 M⁻¹ s⁻¹
B2: 7A6 VH1/Vκ4 humanized antibody (human IgG1, kappa) (antibody, V domains shown)
VH: B1 VH with Q1D, V68I, K76M, S84N
VL: B1 VL with S20T, K24R
notes: as for B1

Relative KD [1]: 1.16 | Kd [2]: 754 pM | koff [2]: 0.0013 s⁻¹ | kon [2]: 1.72e+06 M⁻¹ s⁻¹
B4: 7A6 VH2/Vκ5 humanized antibody (human IgG1, kappa) (antibody, V domains shown)
VH: B1 VH with Q1D, V68I
VL: B1 VL with A80P, V83F, V85T
notes: as for B1

Relative KD [1]: 1.1 | Kd [2]: 715 pM | koff [2]: 0.00168 s⁻¹ | kon [2]: 2.36e+06 M⁻¹ s⁻¹
B3: 7A6 VH2/Vκ1 humanized antibody (human IgG1, kappa) (antibody, V domains shown)
VH: B1 VH with Q1D, V68I
VL: B1 VL with Q3V, P8H, S10F, R45E, S63T, I106M
notes: as for B1
